Measured values as given in the nanobody polyreactivity screen of Harvey et al. (2022).

Experiment: yeast display, Sf9 membrane polyspecificity reagent, FACS + sequencing; frameworks hold sequencing errors
Procedure, shortened: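 Nanobodies from a synthetic yeast display library (Saccharomyces cerevisiae BJ5465), induced 36–48 hours with galactose, were stained 1 hour at 4 °C with 10% biotinylated, detergent-solubilized Sf9 membrane reagent, enriched on streptavidin microbeads, then FACS-sorted. Anti-HA (expression) and streptavidin (reagent binding) fluorescence set low and high (top ~1%) gates. Polyreactivity labels come from the gate of origin. Genes were colony-PCR amplified, MiSeq 2 × 250 sequenced and filtered by CDR length.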

Sequence | polyreactivity (PSR sort gate)
QVQLVESGGGLVQAGGSLRLSCAASGRILYRNTMGWYRQAPGKERELVAAISRSGGSTYYADSVKGRFTISRDNAKNTVYLQMNSLKPEDTAVYYCAKSVVARGASTYIGGFYYWGQGTQVTVSS | high polyreactivity
QVQLVESGGGLVQAGGSLRLSCAASGRILYYYAMGWYRQAPGKERELVAAISWSGGSTYYADSVKGRFTISRDNAKNTVYLQMNSLKPEDTAVYYCAADWRGYRLERAYDYWGQGTQVTVSS | low polyreactivity
QVQLVESGGGLVQAGGSLRLSCAASGRILYYYDMGWYRQAPGKERELVARIGGTYYADSVKGRFTISRDNAKNTVYLQMNSLKPEDTAVYYCAAEYGYDFFRSYQEYGYWGQGTQVTVSS | low polyreactivity
QVQLVESGGGLVQAGGSLRLSCAASGRIQYNAMGWYRQAPGKEREFVAAISWSGGTTYYADSVKGRFTISRDNAKNTVYLQMNSLKPEDTAVYYCATPYTHWGQGTQVTVSS | high polyreactivity
QVQLVESGGGLVQAGGSLRLSCAASGRISGLYAMGWYRQAPGKERELVAAITTSADRTYYADSVKGRFTISRDNAKNTVYLQMNSLKPEDTAVYYCAADSSRPRMYYWGQGTQVTVSS | low polyreactivity
QVQLVESGGGLVQAGGSLRLSCAASGRISGWYAMGWYRQAPGKERELVASISSSGGSTYYADSVEGRFTISRDNAKNTVYFQMNSLKPEDTAVYYCAVRRYNWSFYRGYDYWGQGTQVTVSS | high polyreactivity
QVQLVESGGGLVQAGGSLRLSCAASGRISGYAMGWDRQAPGKERELVAAISTRGGTTYYADSVKGRFTISRDNAKNTVQLQMNSLKPEDTAVYYCNAASSRWPEYDYWGQGTQVTVSS | high polyreactivity
QVQLVESGGGLVQAGGSLRLSCAASGRISHRNAMGWYRQAPGKERELVAAITSGGSTNYADSVKGRFTISRDNAKNTVYLQMNSLKPEDTAVYYCTTTTYHWYYYRWEIFDYWGQGTQVTVSS | low polyreactivity
QVQLVESGGGLVQAGGSLRLSCAASGRISPNNVMGWYRQAPGKERELVAVISRSGDRTNYADSVKGRFTISRDNAKNTVYLQMNSLKPEDTAVYYCAARVVADKYRYDYWGQGTQVTVSS | high polyreactivity
QVQLVESGGGLVQAGGSLRLSCAASGRISQGYAMGWYRQAPGKERELVAGISRSGGSTYYADSVKGRFTISRDNAKNTVYLQMNSLKPEDTAVYYCAARVRGRNASDYDYYYWGQGSQVTVSS | high polyreactivity
QVQLVESGGGLVQAGGSLRLSCAASGRISRVYVMGWYRQAPGKERELVAAISFRGGSTFYADSVKGRFTISRDNAKNTVYLQMNSLKPEDTAVYYCAATVYPLAYDYWGQGTQVTVSS | high polyreactivity
QVQLVESGGGLVQAGGSLRLSCAASGRISSGYAMGWYRQAPGKERELVAAISSIGGRTYYADSVKGRFTISRDNAKNTVYLQMNSLKPEDTAVYYCNTYPYIQRTWWYDYWGQGTQVTVSS | high polyreactivity
QVQLVESGGGLVQAGGSLRLSCAASGRISTFYAMGWYRQAPGKERELVAGIRWRGGSTYYADSVKGRFTISRDNAKNTVYLQMNSLKPEDTAVYYCNAVPRRRRYSRLGYWGQGTQVTVSS | high polyreactivity
QVQLVESGGGLVQAGGSLRLSCAASGRISTTNAMGWYRQAPGKERELVASITSGGGTNYADSVKGRFTISRDNAKNTVYLQMNCLKPEDTAVYYCAKRRSYFLHSYYSYGYWGQGTQVTVSS | high polyreactivity
QVQLVESGGGLVQAGGSLRLSCAASGRISTYNAMGWYIQAPGKERELVASITGGGSTNYADSVKGRFTISRDNAKNTVYLQMNSLKPEDTAVYYCNAKARGQRGYRKIYGYDYWGQGTQVTVSS | high polyreactivity
QVQLVESGGGLVQAGGSLRLSCAASGRISVFNAMGWYRQAPGKDRELVAAITNGGSTNYADSVKVRFTISRDNAKNTVYLLMNSLKPEDTAVYDCAASVGTYAYGRTVYRYDYWGQGTQVTVSS | low polyreactivity
QVQLVESGGGLVQAGGSLRLSCAASGRISVFNAMGWYRQAPGKERELVATITDGGSTYYADSVKGRFTISRDNAKNTVYLQMNSLKPEDTAVYYCAKKQVTTDVSSETFVLEMDYWGQGTQVTVSS | low polyreactivity
QVQLVESGGGLVQAGGSLRLSCAASGRISVFYAMGWYRQAPGKERELVAAITRSGTTKYADSVKGRFTISRDNAKNTVYLQMNSLKPEDTAVYYCAADSSRFFYGVYNYRQYGYWGQGSQVTVSS | high polyreactivity
QVQLVESGGGLVQAGGSLRLSCAASGRISVVNAMGWYRQAPGKERELVATINRGGSTYADSVKGRFTISRDNAKNTVYLQMNSLKPEDTAVYYCAATSFSVRFTRYYYWGQGTQVTVSS | high polyreactivity
QVQLVESGGGLVQAGGSLRLSCAASGRISYRNAMGWYRQAPGKERELVATITNGGSTYYADSVKGRFTISRDNAKNTVYLQMNSLKPEDTAVYYCAKEVWNWGPYYYWGQGTQVTVSS | low polyreactivity
QVQLVESGGGLVQAGGSLRLSCAASGRITFSHNTMGGSRQAPGKERELVAAISSGGRTNYADSVKGRFTISRDNAKNTVYLQMNSLKPEDTAVYYCARESHYDFIYDGMDYWGQGTQVTVSS | low polyreactivity
QVQLVESGGGLVQAGGSLRLSCAASGRIVCYYDMGWSRQAHGKERELVATITFGGGSTYYADSVKGRFTISRDNAKNTVYLQMNSLKPEDTAVYYCAADSGYLGIYGDEYSSGQGTQVTVSS | low polyreactivity

Sequence | polyreactivity (PSR sort gate)
QVQLVESGGGLVQAGGSLRLSCAASGRIVGYAMGWYRQAPGKERELVAAITGSTGSTYYADSVKGRFTISRDNAKNTVYLQMNSLKPEDTAVYYCATKYGRYVYYNHVTWMYYWGQGTQVTVSS | high polyreactivity
QVQLVESGGGLVQAGGSLRLSCAASGRIVHQYAMGWNRQAPGKERELVAAITTRGTSTYYADSVKGRFTISRDNAKNTVYLQMNSLKPEDTAVYYCAAKFFGSVGHVAGDYWGQGTLVTVSS | high polyreactivity
QVQLVESGGGLVQAGGSLRLSCAASGRIVRYYTMGWYRQAPGKEREFVAAITLSGGRTYYADSVKGRFTISRDNAKNTVYLQMNSLKPEDTAVYYCAKRYVWGDKRYWQGYDYWGQGTQVSVSS | high polyreactivity
QVQLVESGGGLVQAGGSLRLSCAASGRIVSKYALGWYRQAPGKERELVAAISNGGSTNYADSVKGRFTISRDNAKNTVYLQMNSRKPEDTAVYYCAAGWPARYEEGYNYWGQGTQVTVST | low polyreactivity
QVQLVESGGGLVQAGGSLRLSCAASGRIVSRYAMGCYRQAPGKERELVADISSSGGSTYYADSVKGRFTISRDNAKNTVYLQMNSMKPEDTAVYDCAVRKKRQYTGDYWGQGTQETVSS | high polyreactivity
QVQLVESGGGLVQAGGSLRLSCAASGRIVTDSAMGWYSQAPGKDREFVAAIRRSGGSTYYAGCVKGRCTISRDTANNTVYLQMNSLKPEDTAVYYCAARGATSYYIFHSWGQGTQVTVSS | high polyreactivity
QVQLVESGGGLVQAGGSLRLSCAASGRIVVGYVMGWYRQSPGKERELVADIRSRGDSTYYADSVKGRFTISRDNAKNTVYLQMNSLKPEDTAVYYCNVLGYSYWGQGTQVTVSS | high polyreactivity
QVQLVESGGGLVQAGGSLRLSCAASGRIVVYNVMGGYRQAPGKERELVAAISWGTGSTYADSVKGRFTISRDNAKNTVYIQMNSLKPEDTAVYYCAADSFIPPYDHWGQGTQVTVSS | low polyreactivity
QVQLVESGGGLVQAGGSLRLSCAASGRIVWFYTMGWYRQAPGKERELVAAISDSAGSTYYADSVKGRFTISRDNAKNTVYLQMNSLKPEDTAVYYCAADGWWQYDYWGQGTQVTVSS | low polyreactivity
QVQLVESGGGLVQAGGSLRLSCAASGRIYCGYTMGWYRPAPGKERELDATITGNGAITRYADSVKGRFTISRDNAKYTVYLQMTSLKPEDTAVYYCAADSGREPKGPFRLTYWGQGTQVTVSS | high polyreactivity
QVQLVESGGGLVQAGGSLRLSCAASGRIYDDNAMGWYRQAPGKERELVAAISSGDSTKYADSVKGRFTISRDNAKNTVYLQMNSLKPDDTAVYSCAAERNHGLVGSESVGRNDYWGPGTQVTVSS | low polyreactivity
QVQLVESGGGLVQAGGSLRLSCAASGRIYDYMAWYRQAPGKERELVAAISWRGGRTYYADSVKGRFTISRDNAKNTVYLQMNSLKPEDTAVYYCAAKTTYRYGYWGQGSQVTVSS | high polyreactivity
QVQLVESGGGLVQAGGSLRLSCAASGRIYDYYTMGWYRQAPGKERELVAAITWIGGSTYYADSVKGRFTISRDNAKNTVYLQMNSLKPEDTAVYYWNAEGTALPYRADTVGGYYYWGQGTQVTVSS | low polyreactivity
QVQLVESGGGLVQAGGSLRLSCAASGRIYGGYAMGWYRQAPGKERELVAAISSRGGSTYYADSVKGRFTISRDNAKNTVYFQMNSLKPEDTAVYYFADDGRVKGWGQGTQVTVSS | high polyreactivity
QVQLVESGGGLVQAGGSLRLSCAASGRIYGIYAMGWYRQAPGKERDLVARITGGGSTNYADSVKGRFTISRDNAKYTVYLQMNSLKPEDTAVYYCAATVRRIVGNITRYDYWGQGTQVTVSS | low polyreactivity
QVQLVESGGGLVQAGGSLRLSCAASGRIYIGNAMGWYRQAPGKERELVAAISKRGGSTYYADSVKGRFTISRDNAKNTVYLQMKSLKAEDTAVYYCIKESLYREFDYLGQGTQVTVSS | low polyreactivity
QVQLVESGGGLVQAGGSLRLSCAASGRIYNYYAMGWYIPAPGKERELVAAISSSGGRTYYADSVKGRFTISRDNAKNTVYLQMNSLKPEDTAVYYCAAYDSLRYSTYDYWGQGTQVTVSS | high polyreactivity
QVQLVESGGGLVQAGGSLRLSCAASGRIYPAYAMGWSRQAPGKERELVASIRRGGITYADSVKGRFTISRDNAKNTVYLQMNSLKPEDTAVYYCNADYRGWGYHMDYWGQGTQVTVSS | low polyreactivity
QVQLVESGGGLVQAGGSLRLSCAASGRIYPYYDMGWYRQAPGKERELVAAITSGTGTYYADSGKGRVTLSRDNAKTTVYFQMYSLKPEDTAVYYCNARRYLRGYWGQGTQVTLSS | low polyreactivity
QVQLVESGGGLVQAGGSLRLSCAASGRIYRGYAMGWYRQAPRKERELFARITSGGRTYYADSVKGRFTISRDNAMNTVYLQMISLKPEDTAVYYCATVGGGYDERHNYWGQWTQVTVSS | high polyreactivity
QVQLVESGGGLVQAGGSLRLSCAASGRIYRYYAMGWYRQAPGKEREFVAAISYRGASTFYADSVKGRFTISRDNAKNTVYLQMNSLKPEDTAVYYCATDTRIRYQGNPYDYWGQGTQVTVSS | high polyreactivity
